From patent US20210388087A1 (Chugai, published 2021)

Target: T1, Human CD137 ECD (human)
T1 construct: entry includes C-terminal His-tag and biotin acceptor peptide; also called human CD137 extracellular domain; 4-1BB
Assay: Biacore SPR, vs parent H183/L072

T1 sequence (chain, as listed by the source limits assumed): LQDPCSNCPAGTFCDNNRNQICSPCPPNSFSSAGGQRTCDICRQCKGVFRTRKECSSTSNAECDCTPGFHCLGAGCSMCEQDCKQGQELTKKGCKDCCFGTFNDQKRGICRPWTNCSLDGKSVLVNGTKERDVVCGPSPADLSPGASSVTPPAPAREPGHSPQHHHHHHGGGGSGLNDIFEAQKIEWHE

| fold change of affinity | Binder |
| --- | --- |
| 0.3 fold | H183/L072 VL V51N (antibody, name in Kabat numbering, V domains shown, Dual-Ig) VH: QVQLVESGGGLVQPGRSLRLSCAASGFTFSNAWMHWVRQAPGKGLEWVAQIKDKGNAYAAYYAPSVKGRFTISRDDSKNSIYLQMNSLKTEDTAVYYCHYVHYASASTVLPAFGVDAWGQGTTVTVSS VL: DIVMTQSPLSLPVTPGEPASISCQASQELVHMNRNTYLHWYQQKPGQAPRLLIYKNSNRFPGVPDRFSGSGSGTDFTLKISRVEAEDVGVYYCAQGTSVPFTFGQGTKLEIK |
| 0.6 fold | H183/L072 VL V51S (antibody, name in Kabat numbering, V domains shown, Dual-Ig) VH: QVQLVESGGGLVQPGRSLRLSCAASGFTFSNAWMHWVRQAPGKGLEWVAQIKDKGNAYAAYYAPSVKGRFTISRDDSKNSIYLQMNSLKTEDTAVYYCHYVHYASASTVLPAFGVDAWGQGTTVTVSS VL: DIVMTQSPLSLPVTPGEPASISCQASQELVHMNRNTYLHWYQQKPGQAPRLLIYKSSNRFPGVPDRFSGSGSGTDFTLKISRVEAEDVGVYYCAQGTSVPFTFGQGTKLEIK |
| 0.1 fold | H183/L072 VL V94A (antibody, name in Kabat numbering, V domains shown, Dual-Ig) VH: QVQLVESGGGLVQPGRSLRLSCAASGFTFSNAWMHWVRQAPGKGLEWVAQIKDKGNAYAAYYAPSVKGRFTISRDDSKNSIYLQMNSLKTEDTAVYYCHYVHYASASTVLPAFGVDAWGQGTTVTVSS VL: DIVMTQSPLSLPVTPGEPASISCQASQELVHMNRNTYLHWYQQKPGQAPRLLIYKVSNRFPGVPDRFSGSGSGTDFTLKISRVEAEDVGVYYCAQGTSAPFTFGQGTKLEIK |
| 0.7 fold | H183/L072 VL V94I (antibody, name in Kabat numbering, V domains shown, Dual-Ig) VH: QVQLVESGGGLVQPGRSLRLSCAASGFTFSNAWMHWVRQAPGKGLEWVAQIKDKGNAYAAYYAPSVKGRFTISRDDSKNSIYLQMNSLKTEDTAVYYCHYVHYASASTVLPAFGVDAWGQGTTVTVSS VL: DIVMTQSPLSLPVTPGEPASISCQASQELVHMNRNTYLHWYQQKPGQAPRLLIYKVSNRFPGVPDRFSGSGSGTDFTLKISRVEAEDVGVYYCAQGTSIPFTFGQGTKLEIK |
| 0 fold | H183/L072 VL V94D (antibody, name in Kabat numbering, V domains shown, Dual-Ig) VH: QVQLVESGGGLVQPGRSLRLSCAASGFTFSNAWMHWVRQAPGKGLEWVAQIKDKGNAYAAYYAPSVKGRFTISRDDSKNSIYLQMNSLKTEDTAVYYCHYVHYASASTVLPAFGVDAWGQGTTVTVSS VL: DIVMTQSPLSLPVTPGEPASISCQASQELVHMNRNTYLHWYQQKPGQAPRLLIYKVSNRFPGVPDRFSGSGSGTDFTLKISRVEAEDVGVYYCAQGTSDPFTFGQGTKLEIK |
| 1.4 fold | H183/L072 VL V51R (antibody, name in Kabat numbering, V domains shown, Dual-Ig) VH: QVQLVESGGGLVQPGRSLRLSCAASGFTFSNAWMHWVRQAPGKGLEWVAQIKDKGNAYAAYYAPSVKGRFTISRDDSKNSIYLQMNSLKTEDTAVYYCHYVHYASASTVLPAFGVDAWGQGTTVTVSS VL: DIVMTQSPLSLPVTPGEPASISCQASQELVHMNRNTYLHWYQQKPGQAPRLLIYKRSNRFPGVPDRFSGSGSGTDFTLKISRVEAEDVGVYYCAQGTSVPFTFGQGTKLEIK |
| 0.7 fold | H183/L072 VL V94M (antibody, name in Kabat numbering, V domains shown, Dual-Ig) VH: QVQLVESGGGLVQPGRSLRLSCAASGFTFSNAWMHWVRQAPGKGLEWVAQIKDKGNAYAAYYAPSVKGRFTISRDDSKNSIYLQMNSLKTEDTAVYYCHYVHYASASTVLPAFGVDAWGQGTTVTVSS VL: DIVMTQSPLSLPVTPGEPASISCQASQELVHMNRNTYLHWYQQKPGQAPRLLIYKVSNRFPGVPDRFSGSGSGTDFTLKISRVEAEDVGVYYCAQGTSMPFTFGQGTKLEIK |
| 0.4 fold | H183/L072 VL V94R (antibody, name in Kabat numbering, V domains shown, Dual-Ig) VH: QVQLVESGGGLVQPGRSLRLSCAASGFTFSNAWMHWVRQAPGKGLEWVAQIKDKGNAYAAYYAPSVKGRFTISRDDSKNSIYLQMNSLKTEDTAVYYCHYVHYASASTVLPAFGVDAWGQGTTVTVSS VL: DIVMTQSPLSLPVTPGEPASISCQASQELVHMNRNTYLHWYQQKPGQAPRLLIYKVSNRFPGVPDRFSGSGSGTDFTLKISRVEAEDVGVYYCAQGTSRPFTFGQGTKLEIK |
| 0.1 fold | H183/L072 VL V94K (antibody, name in Kabat numbering, V domains shown, Dual-Ig) VH: QVQLVESGGGLVQPGRSLRLSCAASGFTFSNAWMHWVRQAPGKGLEWVAQIKDKGNAYAAYYAPSVKGRFTISRDDSKNSIYLQMNSLKTEDTAVYYCHYVHYASASTVLPAFGVDAWGQGTTVTVSS VL: DIVMTQSPLSLPVTPGEPASISCQASQELVHMNRNTYLHWYQQKPGQAPRLLIYKVSNRFPGVPDRFSGSGSGTDFTLKISRVEAEDVGVYYCAQGTSKPFTFGQGTKLEIK |
| 0 fold | H183/L072 VL V94E (antibody, name in Kabat numbering, V domains shown, Dual-Ig) VH: QVQLVESGGGLVQPGRSLRLSCAASGFTFSNAWMHWVRQAPGKGLEWVAQIKDKGNAYAAYYAPSVKGRFTISRDDSKNSIYLQMNSLKTEDTAVYYCHYVHYASASTVLPAFGVDAWGQGTTVTVSS VL: DIVMTQSPLSLPVTPGEPASISCQASQELVHMNRNTYLHWYQQKPGQAPRLLIYKVSNRFPGVPDRFSGSGSGTDFTLKISRVEAEDVGVYYCAQGTSEPFTFGQGTKLEIK |
| 0 fold | H183/L072 VL V94F (antibody, name in Kabat numbering, V domains shown, Dual-Ig) VH: QVQLVESGGGLVQPGRSLRLSCAASGFTFSNAWMHWVRQAPGKGLEWVAQIKDKGNAYAAYYAPSVKGRFTISRDDSKNSIYLQMNSLKTEDTAVYYCHYVHYASASTVLPAFGVDAWGQGTTVTVSS VL: DIVMTQSPLSLPVTPGEPASISCQASQELVHMNRNTYLHWYQQKPGQAPRLLIYKVSNRFPGVPDRFSGSGSGTDFTLKISRVEAEDVGVYYCAQGTSFPFTFGQGTKLEIK |
| 0.1 fold | H183/L072 VL V51W (antibody, name in Kabat numbering, V domains shown, Dual-Ig) VH: QVQLVESGGGLVQPGRSLRLSCAASGFTFSNAWMHWVRQAPGKGLEWVAQIKDKGNAYAAYYAPSVKGRFTISRDDSKNSIYLQMNSLKTEDTAVYYCHYVHYASASTVLPAFGVDAWGQGTTVTVSS VL: DIVMTQSPLSLPVTPGEPASISCQASQELVHMNRNTYLHWYQQKPGQAPRLLIYKWSNRFPGVPDRFSGSGSGTDFTLKISRVEAEDVGVYYCAQGTSVPFTFGQGTKLEIK |
| 0.2 fold | H183/L072 VL V94N (antibody, name in Kabat numbering, V domains shown, Dual-Ig) VH: QVQLVESGGGLVQPGRSLRLSCAASGFTFSNAWMHWVRQAPGKGLEWVAQIKDKGNAYAAYYAPSVKGRFTISRDDSKNSIYLQMNSLKTEDTAVYYCHYVHYASASTVLPAFGVDAWGQGTTVTVSS VL: DIVMTQSPLSLPVTPGEPASISCQASQELVHMNRNTYLHWYQQKPGQAPRLLIYKVSNRFPGVPDRFSGSGSGTDFTLKISRVEAEDVGVYYCAQGTSNPFTFGQGTKLEIK |
| 0 fold | H183/L072 VL V51P (antibody, name in Kabat numbering, V domains shown, Dual-Ig) VH: QVQLVESGGGLVQPGRSLRLSCAASGFTFSNAWMHWVRQAPGKGLEWVAQIKDKGNAYAAYYAPSVKGRFTISRDDSKNSIYLQMNSLKTEDTAVYYCHYVHYASASTVLPAFGVDAWGQGTTVTVSS VL: DIVMTQSPLSLPVTPGEPASISCQASQELVHMNRNTYLHWYQQKPGQAPRLLIYKPSNRFPGVPDRFSGSGSGTDFTLKISRVEAEDVGVYYCAQGTSVPFTFGQGTKLEIK |
| 0.8 fold | H183/L072 VL V94Q (antibody, name in Kabat numbering, V domains shown, Dual-Ig) VH: QVQLVESGGGLVQPGRSLRLSCAASGFTFSNAWMHWVRQAPGKGLEWVAQIKDKGNAYAAYYAPSVKGRFTISRDDSKNSIYLQMNSLKTEDTAVYYCHYVHYASASTVLPAFGVDAWGQGTTVTVSS VL: DIVMTQSPLSLPVTPGEPASISCQASQELVHMNRNTYLHWYQQKPGQAPRLLIYKVSNRFPGVPDRFSGSGSGTDFTLKISRVEAEDVGVYYCAQGTSQPFTFGQGTKLEIK |
| 0 fold | H183/L072 VL V94G (antibody, name in Kabat numbering, V domains shown, Dual-Ig) VH: QVQLVESGGGLVQPGRSLRLSCAASGFTFSNAWMHWVRQAPGKGLEWVAQIKDKGNAYAAYYAPSVKGRFTISRDDSKNSIYLQMNSLKTEDTAVYYCHYVHYASASTVLPAFGVDAWGQGTTVTVSS VL: DIVMTQSPLSLPVTPGEPASISCQASQELVHMNRNTYLHWYQQKPGQAPRLLIYKVSNRFPGVPDRFSGSGSGTDFTLKISRVEAEDVGVYYCAQGTSGPFTFGQGTKLEIK |
| 1.8 fold | H183/L072 VL V94H (antibody, name in Kabat numbering, V domains shown, Dual-Ig) VH: QVQLVESGGGLVQPGRSLRLSCAASGFTFSNAWMHWVRQAPGKGLEWVAQIKDKGNAYAAYYAPSVKGRFTISRDDSKNSIYLQMNSLKTEDTAVYYCHYVHYASASTVLPAFGVDAWGQGTTVTVSS VL: DIVMTQSPLSLPVTPGEPASISCQASQELVHMNRNTYLHWYQQKPGQAPRLLIYKVSNRFPGVPDRFSGSGSGTDFTLKISRVEAEDVGVYYCAQGTSHPFTFGQGTKLEIK |
| 0.3 fold | H183/L072 VL V94L (antibody, name in Kabat numbering, V domains shown, Dual-Ig) VH: QVQLVESGGGLVQPGRSLRLSCAASGFTFSNAWMHWVRQAPGKGLEWVAQIKDKGNAYAAYYAPSVKGRFTISRDDSKNSIYLQMNSLKTEDTAVYYCHYVHYASASTVLPAFGVDAWGQGTTVTVSS VL: DIVMTQSPLSLPVTPGEPASISCQASQELVHMNRNTYLHWYQQKPGQAPRLLIYKVSNRFPGVPDRFSGSGSGTDFTLKISRVEAEDVGVYYCAQGTSLPFTFGQGTKLEIK |
| 0.1 fold | H183/L072 VL V94P (antibody, name in Kabat numbering, V domains shown, Dual-Ig) VH: QVQLVESGGGLVQPGRSLRLSCAASGFTFSNAWMHWVRQAPGKGLEWVAQIKDKGNAYAAYYAPSVKGRFTISRDDSKNSIYLQMNSLKTEDTAVYYCHYVHYASASTVLPAFGVDAWGQGTTVTVSS VL: DIVMTQSPLSLPVTPGEPASISCQASQELVHMNRNTYLHWYQQKPGQAPRLLIYKVSNRFPGVPDRFSGSGSGTDFTLKISRVEAEDVGVYYCAQGTSPPFTFGQGTKLEIK |
| 0.6 fold | H183/L072 VL V51T (antibody, name in Kabat numbering, V domains shown, Dual-Ig) VH: QVQLVESGGGLVQPGRSLRLSCAASGFTFSNAWMHWVRQAPGKGLEWVAQIKDKGNAYAAYYAPSVKGRFTISRDDSKNSIYLQMNSLKTEDTAVYYCHYVHYASASTVLPAFGVDAWGQGTTVTVSS VL: DIVMTQSPLSLPVTPGEPASISCQASQELVHMNRNTYLHWYQQKPGQAPRLLIYKTSNRFPGVPDRFSGSGSGTDFTLKISRVEAEDVGVYYCAQGTSVPFTFGQGTKLEIK |
| 0.8 fold | H183/L072 VL V51Q (antibody, name in Kabat numbering, V domains shown, Dual-Ig) VH: QVQLVESGGGLVQPGRSLRLSCAASGFTFSNAWMHWVRQAPGKGLEWVAQIKDKGNAYAAYYAPSVKGRFTISRDDSKNSIYLQMNSLKTEDTAVYYCHYVHYASASTVLPAFGVDAWGQGTTVTVSS VL: DIVMTQSPLSLPVTPGEPASISCQASQELVHMNRNTYLHWYQQKPGQAPRLLIYKQSNRFPGVPDRFSGSGSGTDFTLKISRVEAEDVGVYYCAQGTSVPFTFGQGTKLEIK |
